# T1: MdMYB1 (Malus domestica? (apple), UniProt A0SQ37 1-243)
# T1 sequence: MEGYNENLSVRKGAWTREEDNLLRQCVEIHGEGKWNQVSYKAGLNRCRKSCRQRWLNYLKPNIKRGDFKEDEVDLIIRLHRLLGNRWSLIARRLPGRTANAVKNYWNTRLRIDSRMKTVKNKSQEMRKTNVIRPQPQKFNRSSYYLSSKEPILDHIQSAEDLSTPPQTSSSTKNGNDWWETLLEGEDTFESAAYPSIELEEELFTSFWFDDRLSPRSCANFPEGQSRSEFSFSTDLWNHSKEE
# B1: MdGSTF6-probe (dsDNA)
# DNA 1: ATATCTAGTTGTAATCAACTGTTATGGCATAAATTG
# DNA 2: CAATTTATGCCATAACAGTTGATTACAACTAGATAT
# Target: T1, MdMYB1
# Test: EMSA; LightShift Chemiluminescent EMSA Kit (Thermo); buffer, salt, pH and temperature not stated
# Details: protein: recombinant; tags: pET-32a fusion, His (Ni-agarose purified); blunt
binder,measurement,value
B1,binding result,binds

# Source: paper PMC6395711, “MdGSTF6, activated by MdMYB1, plays an essential role in anthocyanin accumulation in apple”
